Columns and labels:
human C-peptide (human) [1] = assay: sandwich immunoassay, two-step; CPT-3F-11 on particles, labeled antibody 9101
human C-peptide (human) [2] = assay: sandwich immunoassay, one-step; CPT-3F-11 on particles, labeled antibody PEP-001
human C-peptide (human) [3] = assay: ELISA on immobilized C-peptide; labeled antibody 10 ug/ml, free C-peptide 0 ug/ml
human C-peptide (human) [4] = assay: ELISA on immobilized C-peptide; labeled antibody 10 ug/ml, free C-peptide 10 ug/ml
human C-peptide (human) [5] = assay: ELISA on immobilized C-peptide; labeled antibody 0.1 ug/ml, free C-peptide 0 ug/ml
human C-peptide (human) [6] = assay: ELISA on immobilized C-peptide; labeled antibody 1.0 ug/ml, free C-peptide 0 ug/ml
human C-peptide (human) [7] = assay: ELISA on immobilized C-peptide; labeled antibody 0.1 ug/ml, free C-peptide 10 ug/ml
human C-peptide (human) [8] = assay: ELISA on immobilized C-peptide; labeled antibody 1.0 ug/ml, free C-peptide 10 ug/ml
human C-peptide (human) [9] = assay: ELISA on immobilized C-peptide; labeled antibody 10 ug/ml, free C-peptide 0.1 ug/ml
human C-peptide (human) [10] = assay: ELISA on immobilized C-peptide; labeled antibody 10 ug/ml, free C-peptide 1.0 ug/ml
human C-peptide (human) [11] = assay: ELISA on immobilized C-peptide; labeled antibody 0.1 ug/ml, free C-peptide 0.1 ug/ml
human C-peptide (human) [12] = assay: ELISA on immobilized C-peptide; labeled antibody 0.1 ug/ml, free C-peptide 1.0 ug/ml
human C-peptide (human) [13] = assay: ELISA on immobilized C-peptide; labeled antibody 0.0 ug/ml (blank), free C-peptide 0 ug/ml
human C-peptide (human) [14] = assay: ELISA on immobilized C-peptide; labeled antibody 0.0 ug/ml (blank), free C-peptide 10 ug/ml
human C-peptide (human) [15] = assay: ELISA on immobilized C-peptide; labeled antibody 0.0 ug/ml (blank), free C-peptide 0.1 ug/ml
human C-peptide (human) [16] = assay: ELISA on immobilized C-peptide; labeled antibody 0.0 ug/ml (blank), free C-peptide 1.0 ug/ml
human C-peptide (human) [17] = assay: ELISA on immobilized C-peptide; labeled antibody 10 ug/ml, free C-peptide 0 ug/ml (reference)
human C-peptide (human) [18] = assay: ELISA on immobilized C-peptide; labeled antibody 0.1 ug/ml, free C-peptide 0 ug/ml (reference)
human C-peptide (human) [19] = assay: ELISA on immobilized C-peptide; labeled antibody 1.0 ug/ml, free C-peptide 0 ug/ml (reference)
human proinsulin (human) [20] = target: human proinsulin (human) (UniProt P01308); assay: sandwich immunoassay, one-step; proinsulin 200 ng/ml; CPT-3F-11 on particles, labeled antibody 9101
human proinsulin (human) [21] = target: human proinsulin (human) (UniProt P01308); assay: sandwich immunoassay, one-step; proinsulin 400 ng/ml; CPT-3F-11 on particles, labeled antibody 9101
human proinsulin (human) [22] = target: human proinsulin (human) (UniProt P01308); assay: sandwich immunoassay, two-step; proinsulin 200 ng/ml; CPT-3F-11 on particles, labeled antibody 9101
human proinsulin (human) [23] = target: human proinsulin (human) (UniProt P01308); assay: sandwich immunoassay, one-step, against C-peptide calibration; proinsulin 50 ng/ml; CPT-3-F11 on particles, labeled antibody 9101
human proinsulin (human) [24] = target: human proinsulin (human) (UniProt P01308); assay: sandwich immunoassay, two-step, against C-peptide calibration; proinsulin 200 ng/ml; CPT-3-F11 on particles, labeled antibody 9101
human proinsulin (human) [25] = target: human proinsulin (human) (UniProt P01308); assay: sandwich immunoassay, two-step, against C-peptide calibration; proinsulin 400 ng/ml; CPT-3-F11 on particles, labeled antibody 9101
human proinsulin (human) [26] = target: human proinsulin (human) (UniProt P01308); assay: sandwich immunoassay, two-step, against C-peptide calibration; proinsulin 50 ng/ml; CPT-3-F11 on particles, labeled antibody PEP-001
human proinsulin (human) [27] = target: human proinsulin (human) (UniProt P01308); assay: sandwich immunoassay, one-step, against C-peptide calibration; proinsulin 200 ng/ml; CPT-3-F11 on particles, labeled antibody PEP-001
human proinsulin (human) [28] = target: human proinsulin (human) (UniProt P01308); assay: sandwich immunoassay, one-step, against C-peptide calibration; proinsulin 400 ng/ml; CPT-3-F11 on particles, labeled antibody PEP-001
human proinsulin (human) [29] = target: human proinsulin (human) (UniProt P01308); assay: sandwich immunoassay, two-step, against C-peptide calibration; proinsulin 200 ng/ml; CPT-3-F11 on particles, labeled antibody PEP-001
human proinsulin (human) [30] = target: human proinsulin (human) (UniProt P01308); assay: sandwich immunoassay, two-step, against C-peptide calibration; proinsulin 400 ng/ml; CPT-3-F11 on particles, labeled antibody PEP-001
[31] = target: modified C-peptide (human C-peptide having Arg-Arg bound to its N-terminal and Lys-Arg bound to its C-terminal) (human); assay: sandwich immunoassay, one-step, against C-peptide calibration; modified C-peptide 5 ng/ml; CPT-3F-11 on particles, labeled antibody 9101
[32] = target: modified C-peptide (human C-peptide having Arg-Arg bound to its N-terminal and Lys-Arg bound to its C-terminal) (human); assay: sandwich immunoassay, two-step, against C-peptide calibration; modified C-peptide 5 ng/ml; CPT-3F-11 on particles, labeled antibody 9101
[33] = target: modified C-peptide (human C-peptide having Arg-Arg bound to its N-terminal and Lys-Arg bound to its C-terminal) (human); assay: sandwich immunoassay, two-step, against C-peptide calibration; modified C-peptide 5 ng/ml; CPT-3F-11 on particles, labeled antibody PEP-001

Sequence of modified C-peptide (human C-peptide having Arg-Arg bound to its N-terminal and Lys-Arg bound to its C-terminal) (human) (peptide, as listed by the source): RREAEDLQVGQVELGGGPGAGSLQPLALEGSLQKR
Sequence of UniProt P01308 (P01308 25-110): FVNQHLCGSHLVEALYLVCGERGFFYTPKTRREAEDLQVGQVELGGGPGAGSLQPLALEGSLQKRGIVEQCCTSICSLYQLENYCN
Sequence of human C-peptide (human) (peptide, as listed by the source): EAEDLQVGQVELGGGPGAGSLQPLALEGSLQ

Substance “anti-human C-peptide monoclonal antibody CPT-3-F11 (Dako)” has a 2S/N value (human C-peptide (human) [1]) of 0.005 ng/mL, a 2S/N value (human C-peptide (human) [2]) of 0.012 ng/mL and an Absorbance (absorbance at 405 nm) (human C-peptide (human) [3]) of 2.17. It also gave an Absorbance (absorbance at 405 nm) (human C-peptide (human) [4]) of 0.008, a Binding Ratio (human C-peptide (human) [4]) of 0.1% and an Absorbance (absorbance at 405 nm) (human C-peptide (human) [5]) of 1.52. For the same substance, the Absorbance (absorbance at 405 nm) (human C-peptide (human) [6]) was 1.94, the Absorbance (absorbance at 405 nm) (human C-peptide (human) [7]) was 0 and the Binding Ratio (human C-peptide (human) [7]) was 0%. The Absorbance (absorbance at 405 nm) (human C-peptide (human) [8]) was 0.003, the Binding Ratio (human C-peptide (human) [8]) was 0.2% and the Absorbance (absorbance at 405 nm) (human C-peptide (human) [9]) was 0.336. The Binding Ratio (human C-peptide (human) [9]) was 15.5%, the Absorbance (absorbance at 405 nm) (human C-peptide (human) [10]) was 0.059 and the Binding Ratio (human C-peptide (human) [10]) was 2.7%. It also gave an Absorbance (absorbance at 405 nm) (human C-peptide (human) [11]) of 0.179, a Binding Ratio (human C-peptide (human) [11]) of 11.8% and an Absorbance (absorbance at 405 nm) (human C-peptide (human) [12]) of 0.026. The Binding Ratio (human C-peptide (human) [12]) was 1.7%, the Absorbance (absorbance at 405 nm) (human C-peptide (human) [13]) was 0 and the Binding Ratio (human C-peptide (human) [13]) was 0%. It also gave an Absorbance (absorbance at 405 nm) (human C-peptide (human) [14]) of 0, a Binding Ratio (human C-peptide (human) [14]) of 0% and an Absorbance (absorbance at 405 nm) (human C-peptide (human) [15]) of 0. For the same substance, the Binding Ratio (human C-peptide (human) [15]) was 0%, the Absorbance (absorbance at 405 nm) (human C-peptide (human) [16]) was 0 and the Binding Ratio (human C-peptide (human) [16]) was 0%. For the same substance, the Binding Ratio (human C-peptide (human) [17]) was 100%, the Binding Ratio (human C-peptide (human) [18]) was 100% and the Binding Ratio (human C-peptide (human) [19]) was 100%. It also gave a counts of chemiluminescence (human proinsulin (human) [20]) of 51300 counts, a counts of chemiluminescence (human proinsulin (human) [21]) of 118000 counts and a counts of chemiluminescence (human proinsulin (human) [22]) of 42500 counts. It also gave a Cross-reactivity (%) to Human Proinsulin (human proinsulin (human) [23]) of 0.9%, a Cross-reactivity (%) to Human Proinsulin (human proinsulin (human) [24]) of 1.2% and a Cross-reactivity (%) to Human Proinsulin (human proinsulin (human) [25]) of 1.4%. It also gave a Cross-reactivity (%) to Human Proinsulin (human proinsulin (human) [26]) of 41.1%, a Cross-reactivity (%) to Human Proinsulin (human proinsulin (human) [27]) of over 30% and a Cross-reactivity (%) to Human Proinsulin (human proinsulin (human) [28]) of over 15%. For the same substance, the Cross-reactivity (%) to Human Proinsulin (human proinsulin (human) [29]) was over 30%, the Cross-reactivity (%) to Human Proinsulin (human proinsulin (human) [30]) was over 15% and the Cross-reactivity (%) to Modified C-peptide [31] was 0.5%. The Cross-reactivity (%) to Modified C-peptide [32] was 0.5% and the Cross-reactivity (%) to Modified C-peptide [33] was 53.2%.

Reference: US6534281
